Laboratory results reported in patent US20230203202A1 (DRAGONFLY THERAPEUTICS, published 2023).

Key:
[1] = target: T1, human 5T4 (SPR and epitope mapping, construct not stated) (human, UniProt Q13641 32-355, limits assumed); test: SPR
T1 construct: also called h5T4
T1 sequence (looked up): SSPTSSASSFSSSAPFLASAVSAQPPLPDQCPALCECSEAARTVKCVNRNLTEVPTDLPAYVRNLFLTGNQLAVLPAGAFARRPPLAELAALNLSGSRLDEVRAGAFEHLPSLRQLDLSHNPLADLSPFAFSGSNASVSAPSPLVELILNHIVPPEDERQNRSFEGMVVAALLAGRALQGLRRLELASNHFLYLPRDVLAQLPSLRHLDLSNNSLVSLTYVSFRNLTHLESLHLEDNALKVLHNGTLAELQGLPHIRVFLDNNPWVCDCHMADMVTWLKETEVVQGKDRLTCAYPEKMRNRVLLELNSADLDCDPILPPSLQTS
Description: (§1) Briefly, SPR was performed using a Biacore 8K instrument at physiological temperature of 37° C. Briefly, human Fc specific antibodies were covalently immobilized at a density of about 8000-10000 resonance units (RU) on carboxy methyl dextran matrix of a CM5 biosensor chip to create an anti-hFc IgG chip. Samples were injected on the anti-hFc IgG chip at a flow rate of 10 μL/min for 60 seconds. Protein was serially diluted (300 nM-0.14 nM) in three-fold dilutions with running buffer and injected at a flow rate of 30 μl/min over the captured test articles. Association was monitored for 240-300 seconds, and dissociation was monitored for 300-900 seconds. Surfaces were regenerated between cycles with three pulses of 10 mM glycine-HCl (pH 1.7) injected for 20 seconds at 100 μL/min.

cynomolgus 5T4 = target: T2, cynomolgus 5T4 (cynomolgus monkey, UniProt Q4R8Y9 32-355, limits assumed); test: SPR
T2 construct: also called Cynomolgus monkey 5T4
T2 sequence (looked up): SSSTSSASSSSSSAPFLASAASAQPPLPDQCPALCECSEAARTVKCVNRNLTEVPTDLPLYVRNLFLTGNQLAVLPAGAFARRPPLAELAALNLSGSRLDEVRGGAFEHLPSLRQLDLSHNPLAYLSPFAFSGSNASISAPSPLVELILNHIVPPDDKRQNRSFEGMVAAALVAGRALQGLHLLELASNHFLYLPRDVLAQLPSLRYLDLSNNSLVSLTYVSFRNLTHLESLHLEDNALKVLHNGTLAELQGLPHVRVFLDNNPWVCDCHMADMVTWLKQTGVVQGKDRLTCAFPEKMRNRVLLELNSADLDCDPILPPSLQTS
Description: as §1

[2] = target: T1, human 5T4 (SPR and epitope mapping, …); test: SPR, kinetics fit
[3] = target: T3, human NKG2D (recombinant, construct not stated) (human, UniProt P26718 78-216, limits assumed); test: SPR, kinetics fit
T3 construct: also called hNKG2D
T3 sequence (looked up): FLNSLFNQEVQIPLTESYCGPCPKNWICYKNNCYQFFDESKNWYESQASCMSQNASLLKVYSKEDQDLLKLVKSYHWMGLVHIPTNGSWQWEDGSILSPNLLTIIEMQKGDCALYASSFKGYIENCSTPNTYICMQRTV

Human CD16aV = target: T4, Human CD16aV (human, UniProt P08637 17-208); test: SPR, kinetics fit
T4 construct: position 158 counts on the mature protein
T4 sequence (P08637 17-208 F176V): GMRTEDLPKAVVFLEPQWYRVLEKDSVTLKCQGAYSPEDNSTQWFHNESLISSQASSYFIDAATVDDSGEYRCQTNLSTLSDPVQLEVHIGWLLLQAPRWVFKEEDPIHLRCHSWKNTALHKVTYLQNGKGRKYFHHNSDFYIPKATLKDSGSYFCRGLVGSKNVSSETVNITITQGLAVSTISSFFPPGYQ

[4] = target: T5, human 5T4 on the cell surface (human, UniProt Q13641 32-420); test: cell-based or functional assay
T5 sequence (looked up): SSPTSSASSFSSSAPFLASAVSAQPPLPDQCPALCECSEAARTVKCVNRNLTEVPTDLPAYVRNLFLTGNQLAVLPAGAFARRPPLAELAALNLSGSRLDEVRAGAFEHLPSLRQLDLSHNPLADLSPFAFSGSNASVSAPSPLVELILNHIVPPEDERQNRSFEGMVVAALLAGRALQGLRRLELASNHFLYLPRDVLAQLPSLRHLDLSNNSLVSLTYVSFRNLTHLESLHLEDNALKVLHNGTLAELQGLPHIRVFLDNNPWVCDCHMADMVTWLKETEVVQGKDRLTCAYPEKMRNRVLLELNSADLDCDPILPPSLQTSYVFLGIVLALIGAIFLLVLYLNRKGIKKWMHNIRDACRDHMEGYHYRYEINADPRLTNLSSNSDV

[5] = target: T5, human 5T4 on the cell surface; test: flow cytometry on HCT116 cells (14,000 5T4 per cell)
[6] = target: T1, human 5T4 (SPR and epitope mapping, …); test: SPR, h5T4 binding; sample stressed in Tris pH 9, 7 days 40 °C
[7] = target: T1, human 5T4 (SPR and epitope mapping, …); test: SPR, h5T4 binding; sample oxidised in PBS 0.02% H2O2, 24 hrs RT
[8] = target: T1, human 5T4 (SPR and epitope mapping, …); test: SPR, Biacore 8K, 37 °C, TriNKET captured on anti-hFc chip, pH 6.0
Description: as §1

[9] = target: T1, human 5T4 (SPR and epitope mapping, …); test: SPR, Biacore 8K, 37 °C, TriNKET captured on anti-hFc chip, pH 7.4
Description: as §1

[10] = target: T1, human 5T4 (SPR and epitope mapping, …); test: SPR, h5T4 binding; sample stressed in Tris pH 9, 7 days 40 °C; heterogeneous binding, approximate value

B1: AB1310/AB1783-TriNKET® (bispecific antibody, human IgG1, kappa)
chain: DIQLTQSPSSLSASVGDRVTITCRASQSVTTSNYNYMHWFQQKPGKAPKLLIKFASNLESGVPSRFSGSGSGTDFTLTISSLQPEDFATYYCQHSWEIPWTFGCGTKVEIKGGGGSGGGGSGGGGSGGGGSEVQLVESGGGLVKPGGSLRLSCAASRFTFSDFGMHWVRQAPGKCLEWVSYISSGSSTIYYADSVKGRFTISRDNAKNSLYLQMNSLRAEDTAVYYCASSQSYYRGTLDYWGQGTTVTVSSASDKTHTCPPCPAPELLGGPSVFLFPPKPKDTLMISRTPEVTCVVVDVSHEDPEVKFNWYVDGVEVHNAKTKPREEQYNSTYRVVSVLTVLHQDWLNGKEYKCKVSNKALPAPIEKTISKAKGQPREPRVYTLPPCRDELTKNQVSLTCLVKGFYPSDIAVEWESNGQPENNYKTTPPVLVSDGSFTLYSKLTVDKSRWQQGNVFSCSVMHEALHNHYTQKSLSLSPG
heavy: EVQLVESGGGLVKPGGSLRLSCAASGFTFSSYSMNWVRQAPGKGLEWVSSISSSSSYIYYADSVKGRFTISRDNAKNSLYLQMNSLRAEDTAVYYCARGAPIGAAAGWFDPWGQGTLVTVSSASTKGPSVFPLAPSSKSTSGGTAALGCLVKDYFPEPVTVSWNSGALTSGVHTFPAVLQSSGLYSLSSVVTVPSSSLGTQTYICNVNHKPSNTKVDKKVEPKSCDKTHTCPPCPAPELLGGPSVFLFPPKPKDTLMISRTPEVTCVVVDVSHEDPEVKFNWYVDGVEVHNAKTKPREEQYNSTYRVVSVLTVLHQDWLNGKEYKCKVSNKALPAPIEKTISKAKGQPREPQVCTLPPSRDELTENQVSLTCLVKGFYPSDIAVEWESNGQPENNYKTTPPVLDSDGSFFLYSWLTVDKSRWQQGNVFSCSVMHEALHNHYTQKSLSLSPG
light: DIQMTQSPSSVSASVGDRVTITCRASQGISSWLAWYQQKPGKAPKLLIYAASSLQSGVPSRFSGSGSGTDFTLTISSLQPEDFATYYCQQGVSFPRTFGGGTKVEIKRTVAAPSVFIFPPSDEQLKSGTASVVCLLNNFYPREAKVQWKVDNALQSGNSQESVTEQDSKDSTYSLSSTLTLSKADYEKHKVYACEVTHQGLSSPVTKSFNRGEC
notes: also called AB1310-TriNKET®; AB1783 10F10 F3′ LH H(T62S) CHO opt
Kd [1]: 6.2 nM | Kd (cynomolgus 5T4): 8.3 nM | Kd [2]: 6.1 nM | koff [2]: 0.00077 s⁻¹ | kon [2]: 130000 M⁻¹ s⁻¹ | Kd [3]: 370 nM | koff [3]: 0.088 s⁻¹ | kon [3]: 240000 M⁻¹ s⁻¹ | Kd (Human CD16aV): 112 nM | koff (Human CD16aV): 0.017 s⁻¹ | kon (Human CD16aV): 150000 M⁻¹ s⁻¹ | NK cell-mediated lysis of 786-O cells (DELFIA), EC50 [4]: 0.19 nM | NK cell-mediated lysis of BT474 cells (DELFIA), EC50 [4]: 0.14 nM | NK cell-mediated lysis of Detroit 562 cells (DELFIA), EC50 [4]: 0.23 nM | NK cell-mediated lysis of FaDu cells (DELFIA), EC50 [4]: 0.19 nM | NK cell-mediated lysis of H292 cells (DELFIA), EC50 [4]: 0.1 nM | NK cell-mediated lysis of H1703 cells (DELFIA), EC50 [4]: 0.14 nM | NK cell-mediated lysis of H1975 cells (DELFIA), EC50 [4]: 0.29 nM | NK cell-mediated lysis of HCC4006 cells (DELFIA), EC50 [4]: 0.24 nM | NK cell-mediated lysis of HCT116 cells (DELFIA), EC50 [4]: 0.097 nM | NK cell-mediated lysis of HT29 cells (DELFIA), EC50 [4]: 0.42 nM | NK cell-mediated lysis of KYSE-30 cells (DELFIA), EC50 [4]: 0.072 nM | EC50 [5]: 2.1 nM | koff [6]: 0.0016 s⁻¹ | kon [6]: 110000 M⁻¹ s⁻¹ | Kd [7]: 7 nM | koff [7]: 0.00086 s⁻¹ | kon [7]: 120000 M⁻¹ s⁻¹ | Kd [8]: 9.4 nM | koff [8]: 0.0012 s⁻¹ | kon [8]: 120000 M⁻¹ s⁻¹ | Kd [9]: 6.1 nM | koff [9]: 0.00077 s⁻¹ | kon [9]: 130000 M⁻¹ s⁻¹ | Kd [10]: ~15.1 nM
